One block for each binder: values may come before it.
Experiments:
[1] = molecular target: T1, YKL-40-6his expressed from pcDNA3.1 in transfected 293T cells (human, UniProt P36222 22-383); test: CBA, immunofluorescence of hybridoma supernatant on transfected fixed 293T cells
T1 construct: whole, on cells; also called YKL-40(YKL-40-6his); not shown: 6his tag

[2] = molecular target: YKL-40-strep (YKL-40 protein expressed from pGEX 4t-1 in E. coli BL21(DE3)) (human) (UniProt P36222); test: ELISA, supernatant of subclone 10F1-G8-D9 on coated YKL-40, 3rd screen
[3] = molecular target: YKL-40-strep (YKL-40 protein expressed from pGEX 4t-1 in E. coli BL21(DE3)) (human) (UniProt P36222); test: ELISA, uncloned hybridoma supernatant (plate 10, well F1) on coated YKL-40, 1st screen
[4] = molecular target: T2, Q YKL-40-293-310-6his (YKL-40 construct lacking residues 293-310) (human, UniProt P36222 22-383); test: immunofluorescence on transfected, acetone-fixed 293T cells
T2 construct: also called 缺失氨基酸区间293-310组; not shown: 6his tag

[5] = molecular target: T1, YKL-40-6his expressed from pcDNA3.1 in …; test: immunofluorescence of 293T supernatant on transfected fixed 293T cells

T1 sequence (P36222 22-383): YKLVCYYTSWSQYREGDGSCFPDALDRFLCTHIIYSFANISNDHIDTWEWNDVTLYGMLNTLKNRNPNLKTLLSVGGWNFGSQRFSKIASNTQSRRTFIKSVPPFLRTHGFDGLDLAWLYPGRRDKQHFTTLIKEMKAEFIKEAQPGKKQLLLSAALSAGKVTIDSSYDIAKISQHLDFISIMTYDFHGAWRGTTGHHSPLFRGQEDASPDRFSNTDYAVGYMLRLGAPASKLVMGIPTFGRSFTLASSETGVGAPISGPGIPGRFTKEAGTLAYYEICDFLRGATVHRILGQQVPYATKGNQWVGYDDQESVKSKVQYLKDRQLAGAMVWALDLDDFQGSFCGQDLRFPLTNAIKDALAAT
T2 sequence (P36222 other isoform, or with tags, fused parts or gaps limits assumed): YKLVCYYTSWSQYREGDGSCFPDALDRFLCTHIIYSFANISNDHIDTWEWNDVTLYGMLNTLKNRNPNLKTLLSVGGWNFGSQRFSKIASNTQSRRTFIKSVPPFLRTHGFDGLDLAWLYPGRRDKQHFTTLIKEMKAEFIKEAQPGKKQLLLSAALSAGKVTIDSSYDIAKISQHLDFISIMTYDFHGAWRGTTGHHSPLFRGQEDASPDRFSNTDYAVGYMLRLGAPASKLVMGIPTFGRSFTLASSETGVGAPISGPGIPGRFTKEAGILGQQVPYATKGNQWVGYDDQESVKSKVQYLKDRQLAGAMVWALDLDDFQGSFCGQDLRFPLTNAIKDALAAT

binding result [1]: binds | OD450 [2]: 1.14 | OD450 [3]: 0.905
B1: 单克隆抗体10F1 (hybridoma-derived, clone 10F1-G8-D9) (antibody, V domains shown)
VH: EVQLQESGPSLVKPSQTLSLSCSVTGDSITSGYWNWIRKFPGNKLEYMGFISYSGNTYYNPSLKSRISITRDTSKNQYFLQLNSVTTEDTATYYCVRKGDYDGAWFAYWGQGTLVTVSA
VL: DIQMTQSPASLSASVGETVTITCRASGNIHNYLAWYQQKQGKSPQLLVYNAKTLADGVPSRFSGSGSGTQYSLKINSLQPEDFGSYYCQHFWSTPLTFGAGTKLELK
notes: Mouse hybridoma antibody; Tested as hybridoma culture supernatant; also called YKL-40单克隆抗体

binding result [4]: no binding | binding result [5]: binds
B2: 重组单克隆抗体10F1 (expressed from 10F1m2a + 10F1mk in 293T cells) (antibody, V domains shown)
VH: B1 VH
VL: B1 VL
notes: also called 重组10F1单克隆抗体

Source: CN115850497A (SHAANXI MAI YUAN BIOTECHNOLOGY CO LTD, dated 2023)
